{
  "source": "the RNAGym collection of RNA variant scans (doi:10.7554/elife.90254)",
  "parents": {"B1": {"name": "LINE1-full (parent)", "chain": "UACGUAGGUGGUUUUCCCCUGAUAGUGCUAAGGGGGCCUGGAAGUUUGGACUGGGCAGAGCUCAACACAGCGUGGCAAAGUGGCUGUGGCUAGACUGCCUCUCUGGAUUCCUCGUCACUCAGCAGGGCAUCUCUGAGAGAAAUGCC"}},
  "data": [
    {"variants_of": "B1", "assay": "self-cleavage, relative activity (ratio to wild type); higher = more cleavage; in vitro, sequencing; the parent is a self-cleaving ribozyme", "values": [
      {"variant": "C123U G125C", "self-cleavage": 1.1},
      {"variant": "C123U U130A", "self-cleavage": 1.72},
      {"variant": "C123U U130C", "self-cleavage": 1.74},
      {"variant": "C123U U132A", "self-cleavage": 1.13},
      {"variant": "A124C", "self-cleavage": 1.56},
      {"variant": "A124C A129G", "self-cleavage": 0.66},
      {"variant": "A124C A138C", "self-cleavage": 1.86},
      {"variant": "A124C A142G", "self-cleavage": 0.53},
      {"variant": "A124C U130C", "self-cleavage": 1.84},
      {"variant": "A124G", "self-cleavage": 0.98},
      {"variant": "A124G A136U", "self-cleavage": 1.3},
      {"variant": "A124G A138G", "self-cleavage": 1.36},
      {"variant": "A124G A140G", "self-cleavage": 0.24},
      {"variant": "A124G A142C", "self-cleavage": 0.58},
      {"variant": "A124G A142U", "self-cleavage": 0.94},
      {"variant": "A124G C128A", "self-cleavage": 0.46},
      {"variant": "A124G C128U", "self-cleavage": 0.53},
      {"variant": "A124G C133A", "self-cleavage": 0.81},
      {"variant": "A124G C145A", "self-cleavage": 1.22},
      {"variant": "A124G G125U", "self-cleavage": 1.27},
      {"variant": "A124G G126A", "self-cleavage": 1.22},
      {"variant": "A124G G127A", "self-cleavage": 1.15},
      {"variant": "A124G G139U", "self-cleavage": 1.91},
      {"variant": "A124G U132A", "self-cleavage": 0.87},
      {"variant": "A124G U132C", "self-cleavage": 0.82},
      {"variant": "A124G U134A", "self-cleavage": 0.39},
      {"variant": "A124G U134C", "self-cleavage": 0.89},
      {"variant": "A124U", "self-cleavage": 1.4},
      {"variant": "A124U A129U", "self-cleavage": 0.9},
      {"variant": "A124U A140G", "self-cleavage": 1.5},
      {"variant": "A124U A141G", "self-cleavage": 1.36},
      {"variant": "A124U C128U", "self-cleavage": 1.21},
      {"variant": "A124U C133A", "self-cleavage": 1.59},
      {"variant": "A124U C145U", "self-cleavage": 1.27},
      {"variant": "A124U G127A", "self-cleavage": 0.9},
      {"variant": "A124U U132C", "self-cleavage": 1.43},
      {"variant": "A124U U134C", "self-cleavage": 1.51},
      {"variant": "G125A", "self-cleavage": 1.19},
      {"variant": "G125A A129C", "self-cleavage": 1.36},
      {"variant": "G125A A140G", "self-cleavage": 1.32},
      {"variant": "G125A G144A", "self-cleavage": 1.33},
      {"variant": "G125A U132C", "self-cleavage": 1.55},
      {"variant": "G125C", "self-cleavage": 1.59},
      {"variant": "G125C A138G", "self-cleavage": 1.9},
      {"variant": "G125C U134C", "self-cleavage": 1.58},
      {"variant": "G125U", "self-cleavage": 1.23},
      {"variant": "G125U A136U", "self-cleavage": 1.8},
      {"variant": "G125U U132C", "self-cleavage": 1.47},
      {"variant": "G125U U134A", "self-cleavage": 1.87},
      {"variant": "G125U U134G", "self-cleavage": 1.26},
      {"variant": "G126A", "self-cleavage": 1.31},
      {"variant": "G126A A129U", "self-cleavage": 2.47},
      {"variant": "G126A A136U", "self-cleavage": 1.41},
      {"variant": "G126A A138U", "self-cleavage": 1.33},
      {"variant": "G126A A140U", "self-cleavage": 1.67},
      {"variant": "G126A A141G", "self-cleavage": 1.34},
      {"variant": "G126A A141U", "self-cleavage": 0.67},
      {"variant": "G126A C133A", "self-cleavage": 1.7},
      {"variant": "G126A G127U", "self-cleavage": 1.44},
      {"variant": "G126A U134C", "self-cleavage": 1.58},
      {"variant": "G126A U143A", "self-cleavage": 1.49},
      {"variant": "G126A U143C", "self-cleavage": 0.77},
      {"variant": "G126C", "self-cleavage": 1.19},
      {"variant": "G126C A140G", "self-cleavage": 2.25},
      {"variant": "G126C G137A", "self-cleavage": 1.45},
      {"variant": "G126U", "self-cleavage": 1.18},
      {"variant": "G126U A129G", "self-cleavage": 1.61},
      {"variant": "G126U A129U", "self-cleavage": 0.81},
      {"variant": "G126U U134A", "self-cleavage": 0.84},
      {"variant": "G126U U134C", "self-cleavage": 1.49},
      {"variant": "G126U U143C", "self-cleavage": 1.33},
      {"variant": "G127A A138G", "self-cleavage": 1.36},
      {"variant": "G127A A140G", "self-cleavage": 0.9},
      {"variant": "G127A C146U", "self-cleavage": 1.43},
      {"variant": "G127A G139C", "self-cleavage": 1.41},
      {"variant": "G127A U134G", "self-cleavage": 1.1},
      {"variant": "G127A U143C", "self-cleavage": 2.07},
      {"variant": "G127C A138G", "self-cleavage": 1.31},
      {"variant": "G127C C145U", "self-cleavage": 1.01},
      {"variant": "G127C U143C", "self-cleavage": 1.61},
      {"variant": "G127U A129G", "self-cleavage": 0.75},
      {"variant": "G127U A141G", "self-cleavage": 1.45},
      {"variant": "G127U U130C", "self-cleavage": 1.77}
    ]}
  ]
}
